Literature values, collected in patent US20170022546.

Target: T1, KZF (Kaiso zinc finger domain, three C2H2 fingers) (UniProt Q86T24)
T1 sequence: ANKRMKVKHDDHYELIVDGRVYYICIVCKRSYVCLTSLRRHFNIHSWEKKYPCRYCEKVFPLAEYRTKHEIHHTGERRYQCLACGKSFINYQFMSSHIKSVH
Settings: 5mC; CITED ref 45; 1:1 complex

consecutive methylated CpG target (literature)
Kd: 0.21 nM
